Earlier results as cited in publication PMC6295471.

Experiments:
Sap30 SID (Mus musculus) = Sap30 SID (Mus musculus) (UniProt O88574)
Mxd1 5-24 (Homo sapiens) = Mxd1 5-24 (Homo sapiens) (UniProt Q05195)
Mxd1 5-20 (Homo sapiens) = Mxd1 5-20 (Homo sapiens) (UniProt Q05195)

Chain of UniProt O88574 (O88574 130-220): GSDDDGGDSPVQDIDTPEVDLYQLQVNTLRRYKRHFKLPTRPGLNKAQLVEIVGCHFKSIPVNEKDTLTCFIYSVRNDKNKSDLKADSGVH
Chain of UniProt Q05195 (Q05195 5-24): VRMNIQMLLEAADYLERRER

Kd (Sap30 SID (Mus musculus)) [nM] | Kd (Mxd1 5-24 (Homo sapiens)) [nM] | Kd (Mxd1 5-20 (Homo sapiens)) [nM] | Substance
10 | – | – | Sin3 PAH3 (from UniProt Q60520)
– | 400 | 1400 | Sin3 PAH2 (from UniProt Q62141)
